Test [1] has as its target T1, soluble H-2K^b (K^bsol), heterodimer of truncated K^b heavy chain and murine β-2 microglobulin, purified empty from Drosophila cells (murine), P01901.
T1 chain 1: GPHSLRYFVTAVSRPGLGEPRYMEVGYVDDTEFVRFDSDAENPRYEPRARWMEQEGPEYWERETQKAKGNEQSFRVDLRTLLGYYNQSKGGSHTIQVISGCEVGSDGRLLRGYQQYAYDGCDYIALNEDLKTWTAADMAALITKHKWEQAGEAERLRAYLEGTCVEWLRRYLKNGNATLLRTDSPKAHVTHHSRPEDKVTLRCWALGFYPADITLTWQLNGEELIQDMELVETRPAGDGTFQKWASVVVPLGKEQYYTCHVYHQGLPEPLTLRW
T1 chain 2: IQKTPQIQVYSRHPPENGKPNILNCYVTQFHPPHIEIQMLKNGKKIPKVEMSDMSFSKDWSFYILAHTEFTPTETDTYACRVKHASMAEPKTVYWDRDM
Description: competitive RIA against [^125I]VSV-8 on K^bsol.

For test [2], the target named is T1, soluble H-2K^b (K^bsol), heterodimer of …. Nature of the test: competitive RIA against [^125I]VSV-8 on K^bsol, P30 gel filtration, 23° C. (In general: Size exclusion chromatography separates by hydrodynamic size, large species first.)

This note sets out measurements from patent US20030077318A1.

Take EQLESIINFEKLTEWTSSNVMEER (modifications not checked) [OVA-24]: the fold lower affinity than OVA-8 in test [1] is greater than 10000 fold. For the same molecule, the Kd in test [2] amounted to 71 µM.

The Kd is a measure of binding affinity in units of concentration. A low value points to a tighter complex.
